Results: PMC9622860, “Structural and molecular determinants of Candida glabrata metacaspase maturation and activation by calcium” (Communications Biology, 2022)

Biological target: T1, p20 domain of mature CgMCA-I (fragment between the cleavages after R54 and K263) (Candida glabrata, UniProt Q6FPX9 55-263)
T1 construct: Candida glabrata metacaspase CgMCA-I, p20 fragment left after cleavage after R54 and after K263; Residues seen in the maps: from after Gly68 (7QP1) or after Ser72 (7QP0) up to before Asn260; Limits are worked out from the cleavage sites found by mass spectrometry (R54, K263); The N-terminal His tag leaves with residues 1-54; source: E. coli T7 express, purified as CgMCA-I; cleaved by its own …
T1 sequence (looked up): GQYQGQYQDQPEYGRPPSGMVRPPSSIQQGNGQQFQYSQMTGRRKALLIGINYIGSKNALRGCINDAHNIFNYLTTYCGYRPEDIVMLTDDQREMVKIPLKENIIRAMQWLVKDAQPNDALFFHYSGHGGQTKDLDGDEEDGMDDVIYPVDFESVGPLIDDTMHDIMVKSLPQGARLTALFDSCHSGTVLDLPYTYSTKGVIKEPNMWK
Test: crystal structure; fully matured CgMCA-I with Ca2+ (7QP1, 3.0 A) and with Mg2+ (7QP0, 1.6 A); N-terminal part and p20-p10 linker cleaved off
Details: both partners purified

B1: p10 domain of mature CgMCA-I (fragment after the cleavage at R307) (domain or fragment, Candida glabrata, UniProt Q6FPX9 308-392, looked up)
chain: QIKFSPADVIMLSGSKDNQTSADTFADGQNIGAMSHAFISVMTRQPQQSYLSLLQNLRNELAGKYSQKPQLSASHPIDVNLQFIM
notes: Candida glabrata metacaspase CgMCA-I, C-terminal p10 fragment left after cleavage after R307; Residues seen in the maps begin after Ile309; Limits are worked out from the cleavage site found by mass spectrometry (R307) and the stated length of 392 residues; also called p10 subunit; source: E. coli T7 express, purified as CgMCA-I; cleaved by its own maturation before or during crystallisation
binding result: binds
